Measured values taken from patent publication US20250346644A1 (LATTICON SUZHOU BIOPHARMACEUTICALS, published 2025).
Where a chain is given by its changes, count along the chain named. In names and notes the source's numbering stands. Where two headings read alike, the source gives them in different places.

Key:
[1] = molecular target: T1, hIL2Rα (hCD25) (human, UniProt P01589 22-213, limits assumed); assay: BLI (ForteBio): biotin-CD25 on an SA sensor, buffer step, then sample (100 nM by the text)
T1 construct: bought recombinant protein; also called hCD25 (Acro); biotin-CD25 (Acro)
T1 sequence (looked up): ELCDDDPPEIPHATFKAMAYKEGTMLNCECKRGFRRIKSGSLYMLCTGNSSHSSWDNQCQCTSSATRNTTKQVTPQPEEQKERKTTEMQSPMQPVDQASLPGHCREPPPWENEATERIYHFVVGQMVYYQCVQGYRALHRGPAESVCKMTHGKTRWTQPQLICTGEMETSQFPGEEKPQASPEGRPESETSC

[2] = molecular target: T2, high-affinity IL2R expressed on the surface of CTLL-2 cells; assay: cell-based or functional assay
T2 sequence (P01590 whole entry, species assumed, looked up): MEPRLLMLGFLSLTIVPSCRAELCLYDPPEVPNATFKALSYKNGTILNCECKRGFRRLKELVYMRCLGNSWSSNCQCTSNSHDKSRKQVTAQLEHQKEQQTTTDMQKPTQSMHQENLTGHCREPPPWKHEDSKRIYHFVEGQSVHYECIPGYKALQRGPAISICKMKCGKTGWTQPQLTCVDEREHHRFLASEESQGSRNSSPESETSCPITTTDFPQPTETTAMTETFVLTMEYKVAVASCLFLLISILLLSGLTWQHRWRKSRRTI
T2 sequence (P16297 whole entry, species assumed, looked up): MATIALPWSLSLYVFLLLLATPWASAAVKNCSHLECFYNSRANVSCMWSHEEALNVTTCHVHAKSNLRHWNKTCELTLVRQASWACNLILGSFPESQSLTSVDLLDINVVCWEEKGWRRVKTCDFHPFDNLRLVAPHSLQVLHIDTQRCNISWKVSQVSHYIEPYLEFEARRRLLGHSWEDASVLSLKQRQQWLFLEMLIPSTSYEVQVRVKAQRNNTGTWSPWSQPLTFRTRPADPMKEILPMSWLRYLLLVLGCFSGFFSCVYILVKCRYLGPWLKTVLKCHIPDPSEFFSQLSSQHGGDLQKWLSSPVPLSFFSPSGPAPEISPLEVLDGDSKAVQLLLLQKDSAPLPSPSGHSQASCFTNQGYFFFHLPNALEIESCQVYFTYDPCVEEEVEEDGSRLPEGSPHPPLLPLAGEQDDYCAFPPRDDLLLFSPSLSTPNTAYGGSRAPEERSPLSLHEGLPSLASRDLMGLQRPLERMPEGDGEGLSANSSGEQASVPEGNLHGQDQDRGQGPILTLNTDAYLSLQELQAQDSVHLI
T2 sequence (P34902 whole entry, species assumed, looked up): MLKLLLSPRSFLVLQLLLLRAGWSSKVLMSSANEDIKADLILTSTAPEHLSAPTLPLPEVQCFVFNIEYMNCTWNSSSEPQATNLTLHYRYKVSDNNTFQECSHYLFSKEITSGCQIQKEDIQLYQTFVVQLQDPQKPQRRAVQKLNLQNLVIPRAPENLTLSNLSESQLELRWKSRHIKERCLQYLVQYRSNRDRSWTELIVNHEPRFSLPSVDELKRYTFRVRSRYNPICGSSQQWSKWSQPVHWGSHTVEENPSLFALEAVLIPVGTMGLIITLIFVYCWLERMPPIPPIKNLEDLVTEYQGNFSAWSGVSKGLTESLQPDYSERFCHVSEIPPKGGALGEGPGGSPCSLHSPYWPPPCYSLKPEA

[3] = molecular target: T3, hIL2Rα/β complex (human, UniProt P01589 22-213; P14784 27-239); assay: BLI (ForteBio): biotin-CD25 on an SA sensor, CD122 step, then sample (100 nM by the text) together with CD122
T3 construct: assembled in the BLI assay from bought subunits; also called hIL2Rα/O complex
T3 sequence (looked up) 1: T1 sequence (looked up)
T3 sequence (looked up) 2: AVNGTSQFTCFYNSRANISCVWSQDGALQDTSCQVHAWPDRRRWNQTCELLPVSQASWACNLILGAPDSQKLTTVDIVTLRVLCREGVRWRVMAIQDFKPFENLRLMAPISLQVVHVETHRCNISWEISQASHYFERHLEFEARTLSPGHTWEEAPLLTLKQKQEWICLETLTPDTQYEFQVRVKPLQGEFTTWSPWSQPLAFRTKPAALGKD
Experimental: (§1) The specific method was described as follows: biotin-CD25 (Acro) was diluted in 1×PBS to 5 μg/mL and added to a 96-well black-wall plate at 200 μL per well; hIL2Rβ (Acro) was diluted to 5 μg/mL in 1×PBS and also added to the 96-well black-wall plate at 200 μL per well. […] The 96-well black-wall plate containing the testing samples and a SA sensor was uploaded onto the analyzer, and a program was inputted. The SA sensor was firstly immersed into the well with biotin-CD25 (Acro) and then with hIL2Rβ (Acro) till saturation. After that, the sensor was immersed in the testing sample well and the binding signal was recorded in real-time. At the end of each association-dissociation cycle, the sensor was regenerated by immersing in 500 mM phosphate buffer and then started with the next cycle of detection.

[4] = molecular target: T4, hIL2Rα/β/γ complex (human, UniProt P01589 22-213; P14784 27-239; P31785 23-254); assay: BLI (ForteBio): biotin-CD25 on an SA sensor, CD122 step, then sample (100 nM by the text) together with CD132
T4 construct: assembled in the BLI assay from bought subunits; also called hIL2Rα/o/γ complex
T4 sequence (looked up) 1: T1 sequence (looked up)
T4 sequence (looked up) 2: T3 sequence (looked up) 2
T4 sequence (looked up) 3: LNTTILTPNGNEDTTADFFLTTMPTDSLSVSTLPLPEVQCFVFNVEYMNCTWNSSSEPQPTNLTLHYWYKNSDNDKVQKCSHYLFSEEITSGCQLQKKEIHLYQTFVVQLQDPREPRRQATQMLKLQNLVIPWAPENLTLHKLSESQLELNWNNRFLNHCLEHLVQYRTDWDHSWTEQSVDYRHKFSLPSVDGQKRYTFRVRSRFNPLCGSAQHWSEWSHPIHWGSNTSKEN
Experimental: as §1

[5] = molecular target: T2, high-affinity IL2R expressed on the …; assay: cell-based or functional assay; remark: listed apart in the source
[6] = molecular target: T5, hIL2Rβ (hCD122) (human, UniProt P14784 27-239, limits assumed); assay: ELISA (method of section 2.1.1): sample captured on coated goat anti-human IgG, hCD122 titrated; the x axis is the CD122 concentration
T5 construct: bought recombinant protein; also called hCD122 (Acro)
T5 sequence (looked up): T3 sequence (looked up) 2
Experimental: (§2) ELISA was performed as follows: a goat anti-human IgG (Jackson Immunoresearch) was diluted to 1 μg/mL in 1×PBS and added to an ELISA plate at 100 μL/well, and then incubated at 4° C. overnight. The plate was washed with PBS and then blocked at room temperature for 1 hour after adding the blocking solution (PBST containing 1% BSA) to each well. […] The plate was washed with PBST; the HRP-labeled anti-6×His-tag secondary antibody (Proteintech) diluted at a ratio of 1:10,000 in blocking solution was then added to each well and incubated at room temperature for 1 hour. The plate was washed with PBST; the TMB chromogenic solution (Thermo) was added to each well and incubated in dark for 3-10 minutes at room temperature. The stop solution (2 M HCl) was added to each well, and OD values at a wavelength of 450-570 nm were read using a multimode microplate reader (Varioskan, Thermo).

[7] = molecular target: T1, hIL2Rα (hCD25); assay: ELISA (method of section 4.2.1): sample captured on coated goat anti-human IgG, hCD25 titrated; the x axis is the CD25 concentration
[8] = molecular target: T6, mIL2-his (mouse, UniProt P04351 21-169); assay: BLI ForteBio, Ab on Protein A sensor
T6 construct: also called wild-type mouse IL-2 (with a his-tag); not shown: his-tag
T6 sequence (looked up): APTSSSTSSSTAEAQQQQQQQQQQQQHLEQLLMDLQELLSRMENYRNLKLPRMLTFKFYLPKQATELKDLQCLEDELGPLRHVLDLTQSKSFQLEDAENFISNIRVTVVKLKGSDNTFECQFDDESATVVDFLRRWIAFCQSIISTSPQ

[9] = molecular target: T7, hIL2-TM-his (human, UniProt P60568 21-153); assay: BLI ForteBio, Ab on Protein A sensor
T7 construct: also called hIL-2 mutein containing three point mutations K64G, N90R and M104E (with a his-tag); not shown: his-tag
T7 chain: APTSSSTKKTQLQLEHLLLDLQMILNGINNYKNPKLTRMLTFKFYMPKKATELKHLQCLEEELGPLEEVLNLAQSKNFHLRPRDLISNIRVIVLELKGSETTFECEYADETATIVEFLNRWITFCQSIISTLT

[10] = molecular target: T5, hIL2Rβ (hCD122); assay: ELISA (method of section 4.2.1): sample captured on coated goat anti-human IgG, hCD122 titrated; the x axis is the CD122 concentration
[11] = molecular target: T8, hIL2-DM-his (human, UniProt P60568 21-153); assay: BLI ForteBio, Ab on Protein A sensor
T8 construct: expressed in ExpiCHO-S cells, nickel-column purified; also called hIL-2 mutein containing two point mutations K64G and N90R (with a his-tag); not shown: his-tag

[12] = molecular target: T6, mIL2-his; assay: BLI ForteBio, Ab on Protein A sensor; remark: listed apart in the source
Experimental: (§3) After each cycle of association and dissociation steps, the sensor was regenerated by 10 mM glycine buffer (pH 1.5) and then stated with the next cycle of detection. After the detection, the association rate constant and dissociation rate constant between the antibody and antigen were fitted and extrapolated using the analytical software, and the value of affinity constant (KD) was calculated.

[13] = molecular target: T7, hIL2-TM-his; assay: BLI ForteBio, Ab on Protein A sensor
Experimental: as §3

[14] = molecular target: T6, mIL2-his; assay: BLI ForteBio, Ab on Protein A sensor; remark: listed apart in the source
Experimental: as §3

[15] = molecular target: T6, mIL2-his; assay: ELISA, antibody captured by anti-human IgG, mIL2-his titrated
Experimental: as §2

B1: hIL2-DM (Δ3, C125L) (ligand)
chain: SSSTKKTQLQLEHLLLDLQMILNGINNYKNPKLTRMLTFKFYMPKKATELKHLQCLEEELGPLEEVLNLAQSKNFHLRPRDLISNIRVIVLELKGSETTFMCEYADETATIVEFLNRWITFLQSIISTLT
notes: first three N-terminal residues (APT) deleted; also called hIL2-DM (Δ3, 125L); hIL2-DM (Δ3, C125L) mutein
[1]
  binding result: binds
[2]
  Activity in Promoting CTLL-2 Cell Proliferation (EC50, nM): 0.156 nM
[3]
  binding result: binds
[4]
  binding result: binds

B2: IC-Cy08 (other)
heavy: APTSSSTKKTQLQLEHLLLDLQMILNGINNYKNPKLTRMLTFKFYMPKKATELKHLQCLEEELGCLEEVLNLAQSKNFHLRPRDLISNIRVIVLELKGSETTFMCEYADETATIVEFLNRWITFCQSIISTLTGGGGSGGGGSGGGGSGGGGSQVQLVQSGAEVKKPGATVKISCKVSGDTITAYYMHWVRQAPGQGLEWIGRIDPEDDSTKYAENFKGRVTITADTSTDTAYMELSSLRSEDTAVYYCTTVTCYYSRELRWFAYWGQGTLVTVSS
VL: DIVLTQSPATLSLSPGERATLSCQASQDIGNYLSWYQQKPGQAPRLLIYSATSLASGIPARFSGSRSGTDFTLTISSLEPEDFAVYYCLQHYSTPYTFGQGTKLEIK
notes: hIL-2/anti-IL-2 antibody fusion protein, disulfide IL:65-H:97; also called H6K3(H)-Cy08; H6K3(H)-Cy-08
[2]
  Activity in Promoting CTLL-2 Cell Proliferation (EC50, nM): 0.425 nM
[5]
  STAT5 phosphorylation in CTLL-2 cells by flow cytometry, EC50: 0.234 nM
[6]
  binding result: binds

B3: H6K3(H)-Cy10 (other)
heavy: SSSTKKTQLQLEHLLLDLQMILNGINNYKNPKLTRMLTCKFYMPKKATELKHLQCLEEELGPLEEVLNLAQSKNFHLRPRDLISNIRVIVLELKGSETTFMCEYADETATIVEFLNRWITFLQSIISTLTGGGGSGGGGSGGGGSGGGGSQVQLVQSGAEVKKPGATVKISCKVSGDTITAYYMHWVRQAPGQGLEWIGRIDPEDDSTKYAENFKGRVTITADTSTDTAYMELSSLRSEDTAVYYCTTVTCYYSRELRWFAYWGQGTLVTVSS
VL: B2 VL
notes: fusion with the parental antibody hS4B6-H6K3(H), disulfide IL:42-H:97; also called H6K3-Cy10
[7]
  binding result: no binding (tested: 10 µg/mL)

B4: hS4B6-H6K3(H) (antibody, V domains shown)
VH: QVQLVQSGAEVKKPGATVKISCKVSGDTITAYYMHWVRQAPGQGLEWIGRIDPEDDSTKYAENFKGRVTITADTSTDTAYMELSSLRSEDTAVYYCTTVTFYYSRELRWFAYWGQGTLVTVSS
VL: B2 VL
notes: H6K3 with L34M, N65G, N76D (heavy) and D56S, Y71F (light)
[8]
  Kd: 0.254 nM
  koff: 0.000236 s⁻¹
  kon: 928000 M⁻¹ s⁻¹
[9]
  Kd: 9.88 nM
  koff: 0.0027 s⁻¹
  kon: 274000 M⁻¹ s⁻¹

B5: K2G11-Cy06 (other)
heavy: B3 heavy with C39F, T99C, E204D, V249I, C251F, Y252L
VL: B2 VL with D28Y, G30S, G68C
notes: hIL2-DM (Δ3, C125L) fused to the heavy chain of K2G11, disulfide IL:102-L:68
[2]
  Activity in Promoting CTLL-2 Cell Proliferation (EC50, nM): 5.77 nM
[7]
  binding result: no binding (tested: 10 µg/mL)
[10]
  binding result: binds

B6: S4B6 chimeric antibody (antibody, human IgG1, V domains shown)
VH: EVQLQESGAELVRPGTSVKLSCKVSGDTITAYYLHFVRQRPGQGLEWIGRIDPEDDSTKYAENFKNKATFTADASSNTAYLRLSSLTSEDTATYFCTTVTFYYSRELRWFAYWGQGTLVTVSS
VL: DIQVTQSPASLSASLEEIVTITCQASQDIGNYLSWYQQKLGKSPQLLIHSATSLADGVPSRFSGSRSGTQYSLKINRLQVEDTGIYYCLQHYSTPYTFGAGTKLELK
notes: also called chS4B6
[11]
  Kd: 39.4 nM
  koff: 0.0106 s⁻¹
  kon: 269000 M⁻¹ s⁻¹
[12]
  Kd: 0.996 nM
  koff: 0.000182 s⁻¹
  kon: 183000 M⁻¹ s⁻¹
[13]
  Kd: 22.6 nM
  koff: 0.00476 s⁻¹
  kon: 210000 M⁻¹ s⁻¹
[14]
  Kd: 0.996 nM
  koff: 0.000182 s⁻¹
  kon: 183000 M⁻¹ s⁻¹
[15]
  EC50: 0.0139 µg/mL
